# Measured values published in PMC7980517.
# How the values were obtained:
# Assay in all cases: EMSA
# [1] = target: nsp8 (SARS-CoV-2, UniProt P0DTD1 3943-4140)
# [2] = target: nsp7;nsp8ΔN (SARS-CoV-2;SARS-CoV-2, UniProt P0DTD1;P0DTD1 3860-3942;4019-4140, |)
# [3] = target: nsp8ΔN (SARS-CoV-2, UniProt P0DTD1 4019-4140)
# [4] = target: nsp7;nsp8 (SARS-CoV-2;SARS-CoV-2, UniProt P0DTD1;P0DTD1 3860-3942;3943-4140, |)
# [5] = target: nsp7 (SARS-CoV-2, UniProt P0DTD1 3860-3942)
binder,measurement,setting,value
"GCUUUGAUUUCG (ssRNA) [12-mer ssRNA (FAM, EMSA)]",binding result,[1],binds
same,binding result,[2],no binding
same,binding result,[3],no binding
same,binding result,[4],binds
same,binding result,[5],no binding
